# T1: Human TROP2 Protein, His Tag (Acro Biosystems) (human, UniProt P09758 27-274)
# T1 construct: not shown: His tag
# T1 sequence (looked up): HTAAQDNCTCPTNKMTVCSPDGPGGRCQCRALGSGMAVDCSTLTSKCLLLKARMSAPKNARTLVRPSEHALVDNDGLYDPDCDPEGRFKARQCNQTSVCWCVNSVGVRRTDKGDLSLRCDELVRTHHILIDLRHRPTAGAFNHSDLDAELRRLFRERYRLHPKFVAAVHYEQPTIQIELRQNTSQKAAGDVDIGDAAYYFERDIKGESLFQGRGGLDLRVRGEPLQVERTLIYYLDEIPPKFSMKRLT
# T2: TROP2 on TROP2-positive NCI-H1975 cells (human, UniProt P09758 27-323)
# T2 construct: whole, on cells
# T2 sequence (looked up): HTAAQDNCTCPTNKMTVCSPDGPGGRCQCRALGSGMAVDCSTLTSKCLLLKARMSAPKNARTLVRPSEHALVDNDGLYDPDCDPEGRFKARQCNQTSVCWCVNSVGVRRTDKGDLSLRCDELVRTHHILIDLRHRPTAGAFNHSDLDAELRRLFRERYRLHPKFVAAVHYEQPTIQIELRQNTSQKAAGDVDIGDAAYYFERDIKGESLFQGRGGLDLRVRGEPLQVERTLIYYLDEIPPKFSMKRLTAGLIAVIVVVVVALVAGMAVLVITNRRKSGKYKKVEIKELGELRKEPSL
# T3: Human TROP2 Protein, His Tag (Acro Biosystems) (human, UniProt P09758 27-274)
# T3 construct: not shown: His tag
# T3 sequence (looked up): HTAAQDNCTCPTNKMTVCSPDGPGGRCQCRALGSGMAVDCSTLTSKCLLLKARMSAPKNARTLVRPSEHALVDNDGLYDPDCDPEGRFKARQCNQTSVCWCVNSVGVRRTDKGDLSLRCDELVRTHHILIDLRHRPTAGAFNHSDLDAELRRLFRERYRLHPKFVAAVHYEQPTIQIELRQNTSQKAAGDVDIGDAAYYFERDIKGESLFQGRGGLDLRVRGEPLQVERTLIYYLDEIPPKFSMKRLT
# T4: Human TROP2 Protein, His Tag (Acro Biosystems) (human, UniProt P09758 27-274)
# T4 construct: Bought protein; also called TACSTD2; not shown: His tag
# T4 sequence: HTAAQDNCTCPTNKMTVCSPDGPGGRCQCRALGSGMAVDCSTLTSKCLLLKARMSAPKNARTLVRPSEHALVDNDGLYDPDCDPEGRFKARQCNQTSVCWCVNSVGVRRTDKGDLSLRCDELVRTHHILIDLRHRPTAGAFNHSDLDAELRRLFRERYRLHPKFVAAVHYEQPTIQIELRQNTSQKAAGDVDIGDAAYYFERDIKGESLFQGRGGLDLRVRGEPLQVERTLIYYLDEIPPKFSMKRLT
# Columns and labels:
# [1] = molecular target: T1, Human TROP2 Protein, His Tag (Acro …); experiment: BLI (Octet)
# [2] = molecular target: T2, TROP2 on TROP2-positive NCI-H1975 cells; experiment: binding to TROP2-positive NCI-H1975 cells at pH 5.4
# [3] = molecular target: T2, TROP2 on TROP2-positive NCI-H1975 cells; experiment: binding to TROP2-positive NCI-H1975 cells at pH 7.4
# [4] = molecular target: T2, TROP2 on TROP2-positive NCI-H1975 cells; experiment: binding to TROP2-positive NCI-H1975 cells at pH 6.7
# [5] = molecular target: T3, Human TROP2 Protein, His Tag (Acro …); experiment: Octet (BLI); antigen and pH not given
# [6] = molecular target: T4, Human TROP2 Protein, His Tag (Acro …); experiment: BLI (Octet), antibody on anti-human Fc sensor, human TROP2-His in solution; legend: 3=No binding
Binder,binding result [1],IC50 [2] [nM],IC50 [3] [nM],IC50 [4] [nM],Kd [5] [nM],Octet response at 33.33 nM (Y-Axis) nm [5] [nm],binding result [6]
"MYT12402 (antibody, V domains shown, datopotamab VL 28, 52, 92 substituted) VH: QVQLVQSGAEVKKPGASVKVSCKASGYTFTTAGMQWVRQAPGQGLEWMGWINTHSGVPKYAEDFKGRVTISADTSTSTAYLQLSSLKSEDTAVYYCARSGFGSSYWYFDVWGQGTLVTVSS VL: DIQMTQSPSSLSASVGDRVTITCKASQHVSTAVAWYQQKPGKAPKLLIYSAHYRYTGVPSRFSGSGSGTDFTLTISSLQPEDFAVYYCQQHHITPLTFGQGTKLEIK",no binding (tested: 50 nM),–,–,–,–,–,–
"MYT11635 (antibody, human IgG1, V domains shown, IgG; also called Datopotamab WT; Datopotamab) VH: QVQLVQSGAEVKKPGASVKVSCKASGYTFTTAGMQWVRQAPGQGLEWMGWINTHSGVPKYAEDFKGRVTISADTSTSTAYLQLSSLKSEDTAVYYCARSGFGSSYWYFDVWGQGTLVTVSS VL: DIQMTQSPSSLSASVGDRVTITCKASQDVSTAVAWYQQKPGKAPKLLIYSASYRYTGVPSRFSGSGSGTDFTLTISSLQPEDFAVYYCQQHYITPLTFGQGTKLEIK",–,0.48,0.51,0.54,1.25,0.13,–
"MYT11566 (antibody, human IgG1, V domains shown, IgG; also called Sacituzumab WT; Sacituzumab) VH: QVQLQQSGSELKKPGASVKVSCKASGYTFTNYGMNWVKQAPGQGLKWMGWINTYTGEPTYTDDFKGRFAFSLDTSVSTAYLQISSLKADDTAVYFCARGGFGSSYWYFDVWGQGSLVTVSS VL: DIQLTQSPSSLSASVGDRVSITCKASQDVSIAVAWYQQKPGKAPKLLIYSASYRYTGVPDRFSGSGSGTDFTLTISSLQPEDFAVYYCQQHYITPLTFGAGTKVEIK",–,1.15,1.05,0.94,0.6,0.157,–
"MYT12403 (antibody, V domains shown, datopotamab VL 28, 89, 92 substituted) VH: QVQLVQSGAEVKKPGASVKVSCKASGYTFTTAGMQWVRQAPGQGLEWMGWINTHSGVPKYAEDFKGRVTISADTSTSTAYLQLSSLKSEDTAVYYCARSGFGSSYWYFDVWGQGTLVTVSS VL: DIQMTQSPSSLSASVGDRVTITCKASQHVSTAVAWYQQKPGKAPKLLIYSASYRYTGVPSRFSGSGSGTDFTLTISSLQPEDFAVYYCHQHHITPLTFGQGTKLEIK",no binding (tested: 50 nM),–,–,–,–,–,–
"MYT11699 (antibody, V domains shown, IgG; also called Datopotamab LC variant) VH: QVQLVQSGAEVKKPGASVKVSCKASGYTFTTAGMQWVRQAPGQGLEWMGWINTHSGVPKYAEDFKGRVTISADTSTSTAYLQLSSLKSEDTAVYYCARSGFGSSYWYFDVWGQGTLVTVSS VL: DIQMTQSPSSLSASVGDRVTITCKASQDVSTAVAWYQQKPGKAPKLLIYSASYRYTGVPSRFSGSGSGTDFTLTISSLQPEDFAVYYCQQHYHTPLTFGQGTKLEIK",–,4.58,0.73,1.16,3.52,0.0968,–
"MYT11670 (antibody, human IgG1, V domains shown, IgG) VH: QVQLVQSGAEVKKPGASVKVSCKASGYTFTTAGMQWVRQAPGQGLEWMGWINTHSGVPKYAEDFKGRVTISADTSTSTAYLQLSSLKSEDTAVYYCARSGFGSHYWYFDVWGQGTLVTVSS VL: DIQMTQSPSSLSASVGDRVTITCKASQDVSTAVAWYQQKPGKAPKLLIYSASYRYTGVPSRFSGSGSGTDFTLTISSLQPEDFAVYYCQQHYITPLTFGQGTKLEIK",–,1.83,1.61,1.42,10.9,0.0891,–
"MYT11614 (antibody, human IgG1, V domains shown, IgG; also called Sacituzumab LC variant) VH: QVQLQQSGSELKKPGASVKVSCKASGYTFTNYGMNWVKQAPGQGLKWMGWINTYTGEPTYTDDFKGRFAFSLDTSVSTAYLQISSLKADDTAVYFCARGGFGSSYWYFDVWGQGSLVTVSS VL: DIQLTQSPSSLSASVGDRVSITCKASQDVHIAVAWYQQKPGKAPKLLIYSASYRYTGVPDRFSGSGSGTDFTLTISSLQPEDFAVYYCQQHYITPLTFGAGTKVEIK",–,~5,0.82,1.06,0.75,0.149,–
"MYT13369 (antibody, human IgG1, V domains shown, IgG; also called Sacituzumab HC-LC pairing variant) VH: QVQLQQSGSELKKPGASVKVSCKASGYTFTNYGMNWVKQAPGQGLKWMGWINTYTGEPTYTHDFKGRFAFSLDTSVSTAYLQISSLKADDTAVYFCARGGFGSSYWYFDVWGQGSLVTVSS VL: DIQLTQSPSSLSASVGDRVSITCKASQDVHIAHAWYQQKPGKAPKLLIYSASYRYTGVPDRFSGSGSGTDFTLTISSLQPEDFAVYYCQQHYITPLTFGAGTKVEIK",–,~25,0.63,1.02,0.14,0.167,–
"MYT13370 (antibody, human IgG1, V domains shown, IgG; also called Sacituzumab HC-LC pairing variant) VH: QVQLQQSGSELKKPGASVKVSCKASGYTFTNYGMNWVKQAPGQGLKWMGWINTYTGEPTYTDHFKGRFAFSLDTSVSTAYLQISSLKADDTAVYFCARGGFGSSYWYFDVWGQGSLVTVSS VL: DIQLTQSPSSLSASVGDRVSITCKASQDVHIAHAWYQQKPGKAPKLLIYSASYRYTGVPDRFSGSGSGTDFTLTISSLQPEDFAVYYCQQHYITPLTFGAGTKVEIK",–,~45,0.84,1.86,1.36,0.155,–
"MYT12413 (hu7E6SVG variant, HCV substitutions at 33, 106) (antibody, V domains shown) VH: QVQLQESGPGLVKPSETLSLTCTVSGGSISSYHVHWIRQPPGKGLEWIGVIWTSGVTDYNSALMGRVTISVDTSKNQFSLKLSSVTAADTAVYYCARDGDYDRYTHDYWGQGTLVTVSS VL: DIVMTQSPDSLAVSLGERATINCRASKSVSTSGYSYMHWYQQKPGQPPKLLIYLASNLESGVPDRFSGSGSGTDFTLTISSLQAEDVAVYYCQHSRELPYTFGQGTKLEIK",–,–,–,–,–,–,no binding (tested: 50 nM)
"MYT11704 (antibody, human IgG1, V domains shown, IgG; also called hu7E6SVG WT; hu7E6SVG) VH: QVQLQESGPGLVKPSETLSLTCTVSGGSISSYGVHWIRQPPGKGLEWIGVIWTSGVTDYNSALMGRVTISVDTSKNQFSLKLSSVTAADTAVYYCARDGDYDRYTMDYWGQGTLVTVSS VL: DIVMTQSPDSLAVSLGERATINCRASKSVSTSGYSYMHWYQQKPGQPPKLLIYLASNLESGVPDRFSGSGSGTDFTLTISSLQAEDVAVYYCQHSRELPYTFGQGTKLEIK",–,1.29,0.98,0.97,4.4,0.118,–
"MYT12457 (hu7E6SVG variant, LCV substitutions at 59, 60, 101) (antibody, V domains shown, Full IgG in Expi293 supernatant) VH: QVQLQESGPGLVKPSETLSLTCTVSGGSISSYGVHWIRQPPGKGLEWIGVIWTSGVTDYNSALMGRVTISVDTSKNQFSLKLSSVTAADTAVYYCARDGDYDRYTMDYWGQGTLVTVSS VL: DIVMTQSPDSLAVSLGERATINCRASKSVSTSGYSYMHWYQQKPGQPPKLLIYLASNLHHGVPDRFSGSGSGTDFTLTISSLQAEDVAVYYCQHSRELPYHFGQGTKLEIK",–,–,–,–,–,–,no binding (tested: 50 nM)
"MYT12459 (antibody, human IgG1, V domains shown, IgG; also called hu7E6SVG LCC his scan variant) VH: QVQLQESGPGLVKPSETLSLTCTVSGGSISSYGVHWIRQPPGKGLEWIGVIWTSGVTDYNSALMGRVTISVDTSKNQFSLKLSSVTAADTAVYYCARDGDYDRYTMDYWGQGTLVTVSS VL: DIVMTQSPDSLAVSLGERATINCRASKSVSTSGYSYMHWYQQKPGQPPKLLIYLASNLHSGVPDRFSGSGSGTDFTLTISSLQAEDVAVYYCHHSRHLPYTFGQGTKLEIK",–,~30,1.42,1.67,6.02,0.0906,–
"MYT12460 (hu7E6SVG variant, LCV substitutions at 59, 93, 101) (antibody, V domains shown, Full IgG in Expi293 supernatant) VH: QVQLQESGPGLVKPSETLSLTCTVSGGSISSYGVHWIRQPPGKGLEWIGVIWTSGVTDYNSALMGRVTISVDTSKNQFSLKLSSVTAADTAVYYCARDGDYDRYTMDYWGQGTLVTVSS VL: DIVMTQSPDSLAVSLGERATINCRASKSVSTSGYSYMHWYQQKPGQPPKLLIYLASNLHSGVPDRFSGSGSGTDFTLTISSLQAEDVAVYYCHHSRELPYHFGQGTKLEIK",–,–,–,–,–,–,no binding (tested: 50 nM)
"MYT12456 (hu7E6SVG variant, LCV substitutions at 59, 60, 97) (antibody, V domains shown, Full IgG in Expi293 supernatant) VH: QVQLQESGPGLVKPSETLSLTCTVSGGSISSYGVHWIRQPPGKGLEWIGVIWTSGVTDYNSALMGRVTISVDTSKNQFSLKLSSVTAADTAVYYCARDGDYDRYTMDYWGQGTLVTVSS VL: DIVMTQSPDSLAVSLGERATINCRASKSVSTSGYSYMHWYQQKPGQPPKLLIYLASNLHHGVPDRFSGSGSGTDFTLTISSLQAEDVAVYYCQHSRHLPYTFGQGTKLEIK",–,–,–,–,–,–,no binding (tested: 50 nM)
"MYT12458 (hu7E6SVG variant, LCV substitutions at 59, 93, 94 (Ala at 94)) (antibody, V domains shown, Full IgG in Expi293 supernatant) VH: QVQLQESGPGLVKPSETLSLTCTVSGGSISSYGVHWIRQPPGKGLEWIGVIWTSGVTDYNSALMGRVTISVDTSKNQFSLKLSSVTAADTAVYYCARDGDYDRYTMDYWGQGTLVTVSS VL: DIVMTQSPDSLAVSLGERATINCRASKSVSTSGYSYMHWYQQKPGQPPKLLIYLASNLHSGVPDRFSGSGSGTDFTLTISSLQAEDVAVYYCHASRELPYTFGQGTKLEIK",–,–,–,–,–,–,no binding (tested: 50 nM)
